{"source": "paper PMC5691071", "about": "“Single molecule multiplexed nanopore protein screening in human serum using aptamer modified DNA carriers”", "binders": {"B1": {"name": "Target ii AChE probe (75 nt) (mixed)", "DNA": "GGTTGACTGTAGCTCTGGCAGACGTAGTGTGAAGGTACCGGGCGGCGACCTAAGGTGTCGTGCGTAAGTTTTTAA"}}, "target": "acetylcholinesterase (AChE) (UniProt O42275 24-633)", "sequence (O42275 24-633)": "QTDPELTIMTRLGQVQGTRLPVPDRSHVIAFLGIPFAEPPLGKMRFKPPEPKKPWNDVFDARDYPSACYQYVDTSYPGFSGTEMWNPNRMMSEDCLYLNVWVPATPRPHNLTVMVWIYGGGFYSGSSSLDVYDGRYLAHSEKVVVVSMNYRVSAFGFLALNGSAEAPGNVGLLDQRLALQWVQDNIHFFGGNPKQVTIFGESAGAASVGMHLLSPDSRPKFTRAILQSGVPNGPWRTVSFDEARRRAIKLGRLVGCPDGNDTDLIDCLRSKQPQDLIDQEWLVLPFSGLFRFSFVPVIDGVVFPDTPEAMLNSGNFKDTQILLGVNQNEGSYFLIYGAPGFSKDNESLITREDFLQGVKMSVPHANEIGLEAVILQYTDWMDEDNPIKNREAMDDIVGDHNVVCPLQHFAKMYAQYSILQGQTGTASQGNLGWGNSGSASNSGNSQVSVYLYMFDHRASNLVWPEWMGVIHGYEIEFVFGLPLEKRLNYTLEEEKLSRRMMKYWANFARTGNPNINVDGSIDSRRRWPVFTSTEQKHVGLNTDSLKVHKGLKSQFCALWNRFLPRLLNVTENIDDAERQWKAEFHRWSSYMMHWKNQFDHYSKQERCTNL", "assay": "single-molecule nanopore; 100 pM lambda DNA carrier also carrying TBA probe and thrombin, 100 mM KCl; Nanopore: 100 mM KCl Tris-EDTA, pH 8, 45 min incubation; EMSA thrombin: 140 mM NaCl, 20 mM MgCl2, 20 mM PBS pH 7.4, 45 min; EMSA AChE: 2.7 mM KCl, 4 mM MgCl2, PBS pH 7.4, 1 h; temperature not stated", "conditions": "protein: commercial; chain copies: 4; free oligo in EMSA"}
{"binder": "B1", "values": [{"measurement": "binding result", "value": "binds"}]}
